Experiment [1] concerns the target Candida glabrata Slx1 (Candida glabrata) (UniProt Q6FML9). Briefly: AUC.
The target is the same in experiment [2]. Kind of experiment: SEC-MALS.
In experiment [3] the target is T1, Candida glabrata Slx1 (Candida glabrata, UniProt Q6FML9 1-312).
T1 sequence: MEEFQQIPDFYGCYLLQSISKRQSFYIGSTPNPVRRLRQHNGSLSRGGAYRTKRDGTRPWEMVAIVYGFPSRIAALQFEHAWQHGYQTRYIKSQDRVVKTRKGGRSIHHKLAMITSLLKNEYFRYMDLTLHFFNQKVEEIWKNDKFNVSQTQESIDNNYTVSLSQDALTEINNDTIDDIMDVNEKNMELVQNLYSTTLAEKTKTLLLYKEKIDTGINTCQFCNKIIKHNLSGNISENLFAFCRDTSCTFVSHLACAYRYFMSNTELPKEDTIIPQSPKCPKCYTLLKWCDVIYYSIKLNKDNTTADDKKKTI
Briefly: co-purification.

Turning to “Candida glabrata Slx4 conserved C-terminal domain (domain or fragment)”, the stoichiometry N in experiment [1] and in experiment [2] was 1 each time.

B1: Candida glabrata Slx4 CCD3 (residues 647-726) (domain or fragment, UniProt Q6FJQ6 647-726, looked up)
chain: SNQKKVGVTSKSEVFEFLTHLVKQEPDLLTRIYCFQPITMNDLINKLRNKDSFVDLIDDGTIREWTDKLGICIRSNNLKD
Consider B1, for which, in experiment [3], the binding result is “binds”.

The values are drawn from article PMC4407285 (Cell Reports, 2015).
